# B1: MFF (parent)
# chain: DDLTVVDAASLRRQIIKLNRRLQL
# Variants of: B1
# Assay: protein stability index of a GFP-peptide fusion (GPS, HEK-293T) (PSI 1-6); higher = more stable
# Settings: c terminus: a fixed tail appended
# 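Further: lentivirally expressed fusions sorted by FACS into six bins by GFP to DsRed ratio, PSI derived from sequencing read proportions per bin multiplied by bin number.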
row,Variant,protein stability index
1,DDLHVVDAASLRRQIIKLNRRLQL [T4H],1.7
2,DDLRVVDAASLRRQIIKLNRRLQL [T4R],2.18
3,DDLVVVDAASLRRQIIKLNRRLQL [T4V],1.96
4,DDLEVVDAASLRRQIIKLNRRLQL [T4E],2.21
5,DDLDVVDAASLRRQIIKLNRRLQL [T4D],2.6
6,DDLFVVDAASLRRQIIKLNRRLQL [T4F],2.08
7,DDLTVVDAASLRRQIIKLNRRLQQ [L24Q],2.89
8,DDLTVVDAASLRRQIIKLNRRLQA [L24A],2.29
9,DDLTVVDAASLRRQIIKLNRRLQD [L24D],2.77
10,DDLTVVDAASLRRQIIKLNRRLQM [L24M],1.71
11,DDLTVVDAASLRRQIIKLNRRLQS [L24S],2.42
12,DDLTVVDAASLRRQIIKLNRLLQL [R21L],1.33
13,DDLTVVDAASLRRQIIKLNRWLQL [R21W],1.91
14,DDLTVVDAASLRRQIIKLNRMLQL [R21M],1.14
15,DDLTVVDAASLRRQIIKLNRALQL [R21A],1.57
16,DDLTVVDAASLRNQIIKLNRRLQL [R13N],2.21
17,DDLTVVDAASLRGQIIKLNRRLQL [R13G],2.14
18,DDLTVVDAASLRQQIIKLNRRLQL [R13Q],2.06
19,DDLTVVDAASLRAQIIKLNRRLQL [R13A],2.88
20,DDLTVVDAASLRPQIIKLNRRLQL [R13P],2.56
21,DDLTVVDAASLRRQIIKLNRRLPL [Q23P],2.62
22,DDLTVVDAASLRRQIIKLNRRLNL [Q23N],2.31
23,DDLTVVDAASLRRQIIKLNRRLIL [Q23I],2.14
24,DDLTVVDAASLRRQIIKLNRRLHL [Q23H],1.5

row,Variant,protein stability index
1,DDLTVVDAASLRRQIIKLNRRLEL [Q23E],2.5
2,DDLTVVDAASLRRQIIKLNRRLFL [Q23F],2.32
3,DDLTVLDAASLRRQIIKLNRRLQL [V6L],2.37
4,DDLTVEDAASLRRQIIKLNRRLQL [V6E],2.08
5,DDLTVWDAASLRRQIIKLNRRLQL [V6W],2.4
6,DDLTVQDAASLRRQIIKLNRRLQL [V6Q],1.9
7,DDLTVMDAASLRRQIIKLNRRLQL [V6M],1.99
8,DDLTVKDAASLRRQIIKLNRRLQL [V6K],2.35
9,DDLTVVDAASLRRQIIKSNRRLQL [L18S],3.04
10,DDLTVVDAASLRRQIIKFNRRLQL [L18F],3.41
11,DDLTVVDAASLRRQIIKHNRRLQL [L18H],3
12,DDLTVVDAASLRRQIIKTNRRLQL [L18T],2.89
13,DDLTVVDAASLRRQIIKMNRRLQL [L18M],2.38
14,DDLTVVDAASLRRQIIKLNRRMQL [L22M],3.02
15,DDLTVVDAASLRRQIIKLNRRNQL [L22N],3.78
16,DDLTVVDAASLRRQIIKLNRRPQL [L22P],3.52
17,DDLTVVDAASLRRQIIKLNRRTQL [L22T],2.62
18,DQLTVVDAASLRRQIIKLNRRLQL [D2Q],2.32
19,DHLTVVDAASLRRQIIKLNRRLQL [D2H],2.02
20,DWLTVVDAASLRRQIIKLNRRLQL [D2W],2.86
21,DRLTVVDAASLRRQIIKLNRRLQL [D2R],1.82
22,DSLTVVDAASLRRQIIKLNRRLQL [D2S],2.24
23,DCLTVVDAASLRRQIIKLNRRLQL [D2C],2.73
24,DDLTHVDAASLRRQIIKLNRRLQL [V5H],2.69

row,Variant,protein stability index
1,DDLTEVDAASLRRQIIKLNRRLQL [V5E],2.38
2,DDLTLVDAASLRRQIIKLNRRLQL [V5L],1.69
3,DDLTAVDAASLRRQIIKLNRRLQL [V5A],2.44
4,DDLTVVDAASLRRQIIKLNMRLQL [R20M],2.21
5,DDLTVVDAASLRRQIIKLNSRLQL [R20S],1.96
6,DDLTVVDAASLRRQIIKLNIRLQL [R20I],2.07
7,DDLTVVDAASLRRQIIKLNHRLQL [R20H],2.26
8,DDLTVVDAASLRRQIIKLNTRLQL [R20T],2.76
9,DDLTVVDAASLRRQIIKLNLRLQL [R20L],2.37
10,DDLTVVDSASLRRQIIKLNRRLQL [A8S],2.49
11,DDLTVVDMASLRRQIIKLNRRLQL [A8M],3.09
12,DDLTVVDIASLRRQIIKLNRRLQL [A8I],1.61
13,DDLTVVDLASLRRQIIKLNRRLQL [A8L],2.58
14,DDLTVVDYASLRRQIIKLNRRLQL [A8Y],1.3
15,DDLTVVDNASLRRQIIKLNRRLQL [A8N],2.63
16,DDLTVVDHASLRRQIIKLNRRLQL [A8H],1.95
17,DDLTVVDADSLRRQIIKLNRRLQL [A9D],2.02
18,DDLTVVDAPSLRRQIIKLNRRLQL [A9P],2.12
19,DDLTVVDAHSLRRQIIKLNRRLQL [A9H],2.52
20,DDLTVVDATSLRRQIIKLNRRLQL [A9T],1.82
21,DDLTVVDAWSLRRQIIKLNRRLQL [A9W],1.84
22,DDLTVVDAMSLRRQIIKLNRRLQL [A9M],1.84
23,DDLTVVDARSLRRQIIKLNRRLQL [A9R],4.18

# — the supplement of paper PMC10567573
